Test [1] deals with T1, mouse TIGIT (R & D Systems), ELISA antigen (mouse, UniProt P86176 29-148, limits assumed).
T1 sequence (looked up): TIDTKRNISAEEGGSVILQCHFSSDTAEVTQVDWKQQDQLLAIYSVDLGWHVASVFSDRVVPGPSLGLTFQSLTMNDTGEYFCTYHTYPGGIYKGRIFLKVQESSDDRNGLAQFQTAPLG
In words: ELISA, antigen coated on the plate, 30 ng antibody per well (one amount), absorbance 450 nm. From the text: In order to determine the species cross-reactivity of the anti-TIGIT antibodies screened by phage display screening, whether or not the anti-TIGIT antibodies bound to human TIGIT (R&D Systems), mouse TIGIT (R & D Systems) and rhesus TIGIT antigens was identified by ELISA. The rhesus TIGIT antigens used herein were expressed and purified in the form of Fc-fusion by gene synthesis with reference to the Rhesus TIGIT gene sequence (NCBI accession No. XP_014985303.1). Each of three types of the TIGIT antigens diluted at a concentration of […] in PBS was added at 30 μl/well to a 96-well plate and incubated overnight at 4° C. to induce coating. Then, 30 ng of the screened antibody was bound to the TIGIT antigen, and 30 μL of a TBST (5% BSA) solution diluted at 1:3,000 was added to each well and incubated at room temperature for 1 hour. After washing three times with TBST, 30 μL of the TMB solution was added to each well to induce color development. After ceasing the reaction with 1N H₂SO₄, color development was determined at an absorbance of 450 nm. The species cross-reactivity of the screened antibodies bound to […] of antigens was identified (FIG. 1).

The target of a further test is T2, CD96 (Sinobiological) (UniProt P40200-2 22-503, limits assumed).
T2 sequence (looked up): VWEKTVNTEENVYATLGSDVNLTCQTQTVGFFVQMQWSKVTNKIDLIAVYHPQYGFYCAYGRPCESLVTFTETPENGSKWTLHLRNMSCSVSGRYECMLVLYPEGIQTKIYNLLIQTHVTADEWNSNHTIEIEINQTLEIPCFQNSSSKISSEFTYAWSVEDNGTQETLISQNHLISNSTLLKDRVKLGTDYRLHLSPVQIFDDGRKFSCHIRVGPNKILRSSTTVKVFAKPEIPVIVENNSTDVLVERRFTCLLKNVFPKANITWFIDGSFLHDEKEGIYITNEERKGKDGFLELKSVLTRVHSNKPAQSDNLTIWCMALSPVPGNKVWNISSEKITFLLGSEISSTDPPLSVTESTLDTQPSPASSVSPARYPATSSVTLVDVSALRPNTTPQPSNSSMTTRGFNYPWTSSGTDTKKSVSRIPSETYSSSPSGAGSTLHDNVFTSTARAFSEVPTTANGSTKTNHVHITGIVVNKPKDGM
In words: ELISA, antigen coated at 100 ng/well, 30 ng antibody per well (one amount), absorbance 450 nm. How it is done: (§1) The binding of the anti-TIGIT antibodies to TIGIT superfamilies such as CD96 (Sinobiological), CD155 (Sinobiological), CD112 (R&D Systems), CD113 (R&D Systems) and CD226 (R&D Systems) antigens was identified by ELISA in order to determine the TIGIT specificity of the anti-TIGIT antibodies screened by phage display screening. Six types of antigens including TIGIT were coated at 100 ng/well on a 96-well plate, treated with 30 ng of each screened antibody and incubated at room temperature for 1 hour. After washing three times with TBST, 30 μL of TBST (5% BSA) diluted at 1:3,000 with an anti-human Fab-HRP secondary antibody (Jackson) was added to each well and incubated at room temperature for 1 hour. After washing three times with TBST, 30 μL of the resulting TMB solution was added to each well. After ceasing the reaction with 1N H₂SO₄, color development was determined at an absorbance of 450 nm. The binding of the selected antibodies to the six antigens was identified. As a result, it can be seen that all the antibodies specifically bound only to the TIGIT antigen (FIG. 2).

A further test concerns the target T3, CD226 (R&D Systems) (UniProt Q15762 19-247, limits assumed).
T3 sequence (looked up): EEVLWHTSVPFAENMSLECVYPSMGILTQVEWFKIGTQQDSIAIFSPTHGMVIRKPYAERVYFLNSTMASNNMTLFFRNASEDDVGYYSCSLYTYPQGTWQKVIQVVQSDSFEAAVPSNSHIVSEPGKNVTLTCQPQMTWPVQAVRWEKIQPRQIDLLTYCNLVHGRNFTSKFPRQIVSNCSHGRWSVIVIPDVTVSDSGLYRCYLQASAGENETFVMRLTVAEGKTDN
The description is as above. How it is done: as §1

Test [2] deals with T4, CD155 (Sinobiological), ELISA antigen (UniProt P15151 21-343).
T4 sequence (looked up): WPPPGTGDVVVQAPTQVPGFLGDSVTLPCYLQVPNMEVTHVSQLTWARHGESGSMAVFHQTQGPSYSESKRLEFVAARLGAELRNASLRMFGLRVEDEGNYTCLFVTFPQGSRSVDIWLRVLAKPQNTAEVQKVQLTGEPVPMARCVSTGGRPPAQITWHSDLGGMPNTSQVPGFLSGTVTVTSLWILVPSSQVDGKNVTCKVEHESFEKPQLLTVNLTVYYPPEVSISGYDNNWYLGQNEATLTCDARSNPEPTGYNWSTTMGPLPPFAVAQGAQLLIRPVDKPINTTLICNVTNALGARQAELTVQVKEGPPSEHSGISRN
The description is as above. How it is done: as §1

A further test has as its target CD113 (R&D Systems) (UniProt Q9NQS3 58-404, limits assumed). The description is as above. How it is done: as §1
A further test deals with T5, CD112 (R&D Systems) (UniProt Q92692 32-360, limits assumed).
T5 sequence (looked up): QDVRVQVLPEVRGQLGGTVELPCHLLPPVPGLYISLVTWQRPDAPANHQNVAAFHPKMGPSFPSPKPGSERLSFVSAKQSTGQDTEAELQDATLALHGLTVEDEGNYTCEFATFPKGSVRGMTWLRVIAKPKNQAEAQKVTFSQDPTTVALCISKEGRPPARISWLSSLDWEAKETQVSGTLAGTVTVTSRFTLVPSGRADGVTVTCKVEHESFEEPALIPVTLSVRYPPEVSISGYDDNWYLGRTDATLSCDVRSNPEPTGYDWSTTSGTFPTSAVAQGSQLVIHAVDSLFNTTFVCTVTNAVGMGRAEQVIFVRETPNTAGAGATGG
The test is described as above. How it is done: as §1

The text below walks through data of patent US20210087268A1 (YUHAN, published 2021).

Chain of CD113 (R&D Systems) (Q9NQS3 58-404 limits assumed): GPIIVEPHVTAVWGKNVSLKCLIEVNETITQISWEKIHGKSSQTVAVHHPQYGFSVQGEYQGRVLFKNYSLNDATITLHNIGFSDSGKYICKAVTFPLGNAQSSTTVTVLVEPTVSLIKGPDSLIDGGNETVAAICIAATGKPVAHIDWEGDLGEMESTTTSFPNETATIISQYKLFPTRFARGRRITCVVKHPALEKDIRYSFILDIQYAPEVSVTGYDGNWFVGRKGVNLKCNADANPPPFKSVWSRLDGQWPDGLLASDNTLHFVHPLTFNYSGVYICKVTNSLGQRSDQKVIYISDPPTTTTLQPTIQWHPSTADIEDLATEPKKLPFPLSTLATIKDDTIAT

B1: S64 (IgG1 form) (antibody, V domains shown)
VH: EVQLLESGGGLVQPGGSLRLSCAASGFTFSNYAMSWVRQAPGKGLEWVSAIYPGGGSIYYADSVKGRFTISRDNSKNTLYLQMNSLRAEDTAVYYCAKAIRTCSLSHCYYYYGMDVWGQGTLVTVSS
VL: QSVLTQPPSASGTPGQRVTISCSCSSSNIGNNAVSWYQQLPGTAPKLLIYYDSNRPSGVPDRFSGSKSGTSASLAISGLRSEDEADYYCGSWDYSLSAYVFGGGTKLTVLG
Turning to B1, the binding result is “binds” in test [1]; “no binding (tested: 30 ng per well)” in the test with CD96 (Sinobiological); “no binding (tested: 30 ng per well)” with CD226 (R&D Systems); “no binding (tested: 30 ng per well)” in test [2]; “no binding (tested: 30 ng per well)” with CD113 (R&D Systems); “no binding (tested: 30 ng per well)” with CD112 (R&D Systems).

B2: F04 (IgG1 form) (antibody, V domains shown)
VH: EVQLLESGGGLVQPGGSLRLSCAASGFTFSSYYMSWVRQAPGKGLEWVSSIGSYYTYYADSVKGRFTISRDNSKNTLYLQMNSLRAEDTAVYYCARSSYSGGNGYYYYAYAFDYWGQGTLVTVSS
VL: EIVLTQSPGTLSLSPGERATLSCRASQSVSSSYLAWYQQKPGQAPRLLIYGASSRATGIPDRFSGSGSGTDFTLTISRLEPEDFAVYYCQQGYHRYATFGQGTKVEIK
Turning to B2, the binding result was “binds” in test [1]; “no binding (tested: 30 ng per well)” in the test with CD96 (Sinobiological); “no binding (tested: 30 ng per well)” in the test with CD226 (R&D Systems); “no binding (tested: 30 ng per well)” in test [2]; “no binding (tested: 30 ng per well)” with CD113 (R&D Systems); “no binding (tested: 30 ng per well)” in the test with CD112 (R&D Systems).
